Reference: FireProtDB (doi:10.1021/bi990893b)

B1: Cytochrome b5, P00171 (parent)
chain: MAEESSKAVKYYTLEEIQKHNNSKSTWLILHYKVYDLTKFLEEHPGGEEVLREQAGGDATENFEDVGHSTDARELSKTFIIGELHPDDRSKITKPSESIITTIDSNPSWWTNWLIPAISALFVALIYHLYTSEN

Variants of: B1
Settings: Bos taurus, pH 7, Thermal, Absorbance, Sodium phosphate 100 mM, structure 1CYO, whole UniProt chain shown; for ddG of mutation (higher = less stable): 67.2 °C

MAEESSKAVKYYTLEEIQKHNNSKSTWLILHYKVYDLTKFLEEHPGGEEVLREQAGGDATENFEDKGHSTDARELSKTFIIGELHPDDRSKITKPSESIITTIDSNPSWWTNWLIPAISALFVALIYHLYTSEN [V66K]
ddG of mutation (higher = less stable): 2.34 kcal/mol
Tm: 58.5 °C
change of melting temperature, mutant - wild type (higher = more stable): -8.7 °C
unfolding enthalpy (van 't Hoff): 87 kcal/mol

MAEESSKAVKYYTLEEIQKHNNSKSTWLILHYKVYDLTKFLEEHPGGEEVLREQAGGDATENFEDHGHSTDARELSKTFIIGELHPDDRSKITKPSESIITTIDSNPSWWTNWLIPAISALFVALIYHLYTSEN [V66H]
ddG of mutation (higher = less stable): 1.63 kcal/mol
Tm: 61.3 °C
change of melting temperature, mutant - wild type (higher = more stable): -5.9 °C
unfolding enthalpy (van 't Hoff): 88.2 kcal/mol

MAEESSKAVKYYTLEEIQKHNNSKSTWLILHYKVYDLTKFLEEHPGGEEVLREQAGGDATENFEDYGHSTDARELSKTFIIGELHPDDRSKITKPSESIITTIDSNPSWWTNWLIPAISALFVALIYHLYTSEN [V66Y]
ddG of mutation (higher = less stable): 1.29 kcal/mol
Tm: 62.5 °C
change of melting temperature, mutant - wild type (higher = more stable): -4.7 °C
unfolding enthalpy (van 't Hoff): 91.3 kcal/mol

MAEESSKAVKYYTLEEIQKHNNSKSTWLILHYKVYDLTKFLEEHPGGEEVLREQAGGDATENFEDEGHSTDARELSKTFIIGELHPDDRSKITKPSESIITTIDSNPSWWTNWLIPAISALFVALIYHLYTSEN [V66E]
ddG of mutation (higher = less stable): 1.1 kcal/mol
Tm: 63.2 °C
change of melting temperature, mutant - wild type (higher = more stable): -4 °C
unfolding enthalpy (van 't Hoff): 93.2 kcal/mol
